This assay addresses Nn8 (fraction 8 from N. nivea venom) (Naja nivea, UniProt P01390, biotin (site not stated)). Kind of assay: BLI. For orientation: Biolayer interferometry detects binding as a change in optical thickness at a sensor tip.

Nn8 (fraction 8 from N. nivea venom), sequence (P01390 whole entry, looked up): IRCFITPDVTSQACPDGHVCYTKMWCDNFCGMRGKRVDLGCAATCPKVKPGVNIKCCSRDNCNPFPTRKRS

B1: TPL1158_01_C09 (VHH)
VHH: QVQLQESGGGLVQPGGSLRLSCAASGDIGGLKQMGWYRQAPGHQRELVAVKRNENEANYTESVKGRFTISRDNARKMVYLQMNSLKPEDTAVYYCNAVVGNWYTSGYYEDTYWGQGTQVTVSS
B1 gave a Kd of 63 nM.

Usually Kd stands for the equilibrium constant for the complex coming apart. A low value points to tighter binding.

Values taken from paper PMC12274480 (Communications Chemistry, 2025).
